Experimental data published in article PMC8304084, “A Concerted Action of UBA5 C-Terminal Unstructured Regions Is Important for Transfer of Activated UFM1 to UFC1” (International Journal of Molecular Sciences, 2021).
Read-outs that look alike come from different tables or passages of the source.

Experiments:
[1] = molecular target: T1, UFC1 (Homo sapiens, UniProt Q9Y3C8); assay: NMR titration with UFC1; type: binding; conditions: [15N,1H] TROSY-HSQC, 25 °C
T1 construct: Full length UFC1, residues 1–167; modified ubiquitin tag (Ub19) with TEV site (N, cleaved yes); made in house; host or cells: E. coli T7 Express
T1 sequence (Q9Y3C8 1-167): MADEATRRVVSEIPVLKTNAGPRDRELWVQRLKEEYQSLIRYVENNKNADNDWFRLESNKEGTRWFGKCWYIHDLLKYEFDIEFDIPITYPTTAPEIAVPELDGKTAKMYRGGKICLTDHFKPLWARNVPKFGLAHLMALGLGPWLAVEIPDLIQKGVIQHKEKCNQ
Description: To understand the role of the UBA5 C-terminal region in coordination of the binding events reported above on the molecular level, we performed NMR titration experiments. […] It seems, that these UBA5 residues form additional interactions with UFC1.
All NMR experiments were performed at a sample temperature of 25 °C on Bruker 600, 700, 800, 900, and 950 MHz spectrometers equipped with cryogenic probes, and a 500 MHz spectrometer equipped with a room-temperature triple-resonance probe. All NMR spectra were analyzed with the Sparky 3.114 software (University of California, San Francisco, USA). For NMR titration experiments, the non-labeled UBA5 peptides were titrated to 100 µM ^13C,^15N-labeled UFC1 to a final molar ratio of 1:8 (UFC1:UBA5 peptide). Conversely, 100 µM ^13C,^15N-labeled UBA5 peptides were titrated with non-labeled UFC1 to a final molar ratio 1:4 (UBA5 peptide:UFC1). 2D ^1H-^15N correlation spectra ([^15N,^1H] TROSY-HSQC) were recorded at each titration point. The same types of spectra were recorded to estimate binding of ^13C,^15N-labeled UFC1 (75 µM) to non-labeled UBA5, UBA5~UFM1 and UFM1 at 1:2 molar ratios. CSP values, Δδ, were calculated for each individual amide group using the formula Δδ = [(ΔδN/5)^2 + Δδ^2HN)]^1/2.

[2] = molecular target: T2, UFM1 (Homo sapiens, UniProt P61960); assay: Gel filtration and electrophoresis of UBA5 C250K~UFM1 conjugates with excess UFM1; type: binding; conditions: gel filtration, Superdex 200 10/300, 4 times molar excess of UFM1, electrophoretic analysis
T2 construct: Full length UFM1, residues 2–83; modified ubiquitin tag (Ub19) with TEV site (N, cleaved yes); made in house; host or cells: E. coli T7 Express
T2 sequence (P61960 2-83): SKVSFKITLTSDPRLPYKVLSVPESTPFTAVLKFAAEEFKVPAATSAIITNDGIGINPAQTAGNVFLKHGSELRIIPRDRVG
Description: Figure 4 Interaction studies between full length UBA5 and UFC1 proteins. (A) Gel electrophoresis of ufmylation assays including UBA5 FL^1–404 (left plot) and UBA5 ΔR3^1–380. (B) UFC1 binding to full length UBA5 (left plot) and full length stable UBA5~UFM1 conjugate (right plot) observed by ITC experiments. […] KD values are indicated. (C) Gel-filtration profiles of the FL^1–404 C250K~UFM1 conjugates in presence of 4 times molar excess of UFM1 (red lines) and UFC1 (black lines). The peak subjected to electrophoretic analysis is indicated by an asterisk. (D) Scheme of reactions involving UBA5 in the ufmylation cascade. The structures of UBA5 AD (brown), UFM1 (cyan) and UFC1 (grey) are represented as ribbon diagrams; the UBA5 unstructured C-terminus containing regions R1 (orange), R2 (green) and R3 (violet) is shown as dashed lines. The structures were generated from PDB entry 5IAA [29]. * indicates regions of another UBA5 molecule involved in the in trans transfer of UFM1.
For stable UBA5~UFM1 conjugation, 70 µM UFM1, 20 µM FL^1–404 C250K and 1 mM ATP were added to ufmylation reaction buffer (50 mM HEPES […], 100 mM NaCl, 5 mM MgCl2). For NMR analysis, resulting complexes were concentrated and equilibrated with ITC/NMR buffer. To analyze complex formation by ufmylation assay 300 µL of sample were loaded onto a Superdex 200 10/300 column (GE Healthcare, München, Germany).

[3] = molecular target: T1, UFC1; assay: ITC, UBA5 constructs vs UFC1; type: binding; conditions: for N: ITC stoichiometry; for N / ΔG / ΔS / −T*ΔS / KA*10^−6 / Kd: UFC1 titrated to full length UBA5; for N / ΔH / KA*10^−6: ± = fitting error; for ΔG / ΔS / −T*ΔS / ΔH / KA*10^−6 / Kd: ITC, 25 °C; for ΔH: UFC1 titrated to full length UBA5 (FL^1–404 or FL^1–404 C250K~UFM1), single profile; for ΔH / Kd: 25 mM HEPES pH 7.5, 100 mM NaCl; for KA*10^−6: value is KA × 10^−6; for Kd: VP-ITC, one-site model, single ITC profile
Description: To understand how the UBA5 C-terminus participates in the ufmylation cascade, we performed isothermal titration calorimetry (ITC) experiments, in which we titrated UBA5 C-terminal peptides (see Table 1) to the UBA5 AD, UFC1, UFM1 and representative LC3/GABARAP proteins (Figure 2A, Supplementary Figure S2A–D and Table 2).
To investigate if conjugation of UFM1 to the UBA5 catalytic cysteine (C250) affects the UFC1:UBA5 interactions, we prepared full length UBA5 C250K mutant and stably conjugated UFM1 to it as reported before for a number of ubiquitin-specific E2 enzymes. We compared the UFC1 spectra after addition of a twofold molar excess of FL^1–404 and FL^1–404 C250K~UFM1 constructs (Supplementary Figure S5C).
All proteins and peptides were expressed in E.Coli T7 Express (New England Biolabs GmbH, Frankfurt, Germany) cells in LB or M9 (to obtain ^15N- and ^13C,^15N-labeled polypeptides) media according to the protocol described in [33, 36]. For protein purification, bacterial cell pellets were resuspended in lysis buffer (50 mM Tris-HCl pH = 7.5, 100 mM NaCl, 5% glycerol, 5 mM PIC (protease inhibitor cocktail)) and lysed via sonication (TT13 Sonotrode, 40% amplitude, for 6 × 1 min with a 0.5/0.5-s pulse). Lysates were centrifuged for 45 min at 17,000× g at 4 °C. Supernatants were loaded onto a His Trap Fast Flow 5 mL column (GE Healthcare, München, Germany) equilibrated in loading buffer (50 mM Tris-HCl pH = 8.0, 250 mM NaCl, 1% glycerol, 20 mM imidazole). The column was washed with loading buffer for 5–10 CV and protein was eluted with elution buffer (50 mM Tris-HCl pH = 8, 250 mM NaCl, 1% glycerol, 400 mM imidazole). Simultaneous TEV cleavage (1 mg TEV protease was added to 100 mg peptides/proteins) and buffer exchange to loading buffer via dialysis was performed over night at 4 °C. After reverse IMAC, proteins were concentrated with conical concentrators (Millipore Merck, Darmstadt, Germany) and loaded on a Superdex 10/60 75 or 200 column (GE Healthcare, München, Germany) for further purification and equilibration with ITC/NMR buffer (25 mM HEPES pH = 7.5, 100 mM NaCl). For structural NMR spectroscopy, buffer containing 50 mM Tris-HCl pH = 7.5, 100 mM NaCl was used. Prior to NMR experiments, TCEP and protease inhibitors cocktail were added to the samples to final concentrations 1 and 5 mM, respectively. Purified peptides and protein were concentrated and stored at −80 °C. The protein and peptide concentrations were calculated from the UV absorption at 280 nm by Nanodrop spectrophotometer (Thermo Scientific, Langenselbold, Germany).
All ITC experiments were performed at 25 °C using a VP-ITC microcalorimeter (Malvern Panalytical Ltd., Malvern, UK). Peptides in concentration of ~400 µM were titrated into 20–25 µM solutions of corresponding binding partner at a stirring speed of 307 rpm. The raw data were corrected on the dilution heat of peptides obtained in independent experiment (titration of the peptide in syringe into the ITC/NMR buffer in the measuring cell). Pre-titration delay was set to 180 s, interval between titration steps was experimentally adjusted to avoid kinetic contribution to the observed heat effects and set to 200 s. A single ITC profile was collected for each type of interaction. The ITC data were analyzed based on a “one-site” binding model with MicroCal ITC software implemented in Origin 7.0.

[4] = molecular target: T1, UFC1; assay: In vitro thioester formation (ufmylation) assay, UFC1~UFM1 conjugate; type: biochemical; conditions: within 30 min; 70 µM UFM1, 20 µM UFC1, 20 µM UBA5 construct, 1 mM ATP, 50 mM HEPES pH 7.5, 22 °C; Western blot; triplicates
Description: First, we analyzed the effect of the UBA5 C-terminus on UFM1 transfer to UFC1 with an in vitro thioester formation assay (Figure 1B–E).
Ufmylation reaction assays were adopted from work of Xie. Briefly, 70 µM UFM1, 20 µM UFC1 and 20 µM of different UBA5 constructs were mixed in reaction buffer (50 mM HEPES pH = 7.5, 100 mM NaCl, 5 mM MgCl2). After starting the reaction with addition of 1 mM ATP, the reaction mix was incubated at 22 °C for the desired time. To quench the reaction and prepare electrophoretic samples, 1 µL of the reaction mix was added to 99 µL 1x non-reducing SDS loading buffer and frozen in liquid nitrogen. Sample content was visualized by sodium dodecyl sulfate polyacrylamide gel electrophoresis (SDS-PAGE). The transfer to polyvinylidene difluoride (PVDF) membrane was performed via a Trans-Blot® Turbo™ Transfer System (Bio-Rad, München, Germany). After transfer the membrane was blocked with TBST (Tris-buffered saline with Tween20 buffer, 20 mM Tris, 150 mM NaCl and 0.1% TWEEN 20) containing 5% w/v nonfat dry milk for 1 h, followed by α-UFC1 antibody incubation over night at 4 °C (ab189251 abcam, 1:10,000 in TBST containing 5% w/v nonfat dry milk). After washing with TBST the membrane was incubated with secondary antibody (anti-rabbit-HRP) for 1 h at RT and again washed with TBST. Detection was performed by addition of ECL solution. For quantification of UFC1 ufmylation coloc2 software implemented in ImageJ was used.

[5] = test system: UFM1, UFC1; conditions: cited from earlier work
Description: The role of this region is not understood, and no interacting proteins could be identified so far. […] Ufmylation is essential for embryonic development. The A371T mutation was described previously to be present in patients suffering from severe infantile-onset encephalopathy. […] Our ITC experiments with C-terminal UBA5 peptides containing the A371T or its phosphomimicking A371E mutations (loca ...

Substance | interaction with UFC1 (in words) [1] | non-conjugated UFM1 in conjugate peak [2] | N [3] | ΔG [3] [kcal/mol] | ΔS [3] [cal mol^−1 K^−1] | −T*ΔS [3] [kcal/mol] | ΔH [3] [kcal/mol] | KA*10^−6 [3] [M^−1] | Kd [3] [nM] | UFC1 conjugated to UFM1 (UFC1~UFM1) [4] | effect of UBA5 A371T mutation on UFM1 activation / transfer [5] | effect of UBA5 A371T mutation on UFM1 activation / transfer ([5]; listed as A371T mutation)
FL^1–404 C250K~UFM1: full length UBA5 C250K mutant with UFM1 stably conjugated to it | no significant enhancement of the UBA5:UFC1 interaction | contains non-conjugated UFM1 | 1.03 ± 0.009 | -8.10 | −0.34 | 0.10 | -8.21 ± 0.01 | 0.87 ± 0.05 | 1200 | – | – | –
FL^1–404: Full length UBA5, residues 1–404 | did not observe significant CSPs (shift or disappearance of the UFC1 resonances) in comparison to the spectra of the UFC1:R3^381–404W complex | – | 0.97 ± 0.009 | -8.00 | 1.26 | -0.38 | -7.62 ± 0.01 | 0.72 ± 0.04 | 1400 | ~ 90% | – | –
UBA5 A371T mutant: A371T mutation in the human UBA5 protein, literature | – | – | – | – | – | – | – | – | – | – | slightly reduced UBA5 thioester conjugation with UFM1 and reduced enzymatic activity in trans-thioesterification of UFC1 | decreases the ability of UBA5 to activate UFM1, to transfer the activated UFM1 to UFC1 and to mediate UFBP1~UFM1 formation
